Measurements: PMC5689134, “Detailed Analysis of Insulin Absorption Variability and the Tissue Response to Continuous Subcutaneous Insulin Infusion Catheter Implantation in Swine” (Diabetes Technology & Therapeutics, 2017)

Test system: subcutaneous tissue
Assay: Tissue histology surrounding CSII catheters, pathologist grading
Assay type: in vivo, swine
Conditions: for Tissue histopathology compared with catheters infused with saline or not infused: day 5 of CSII infusion, result in words
Protocol: The swine were euthanized after completion of the third PK study on day 5. A 50 μL bolus of methylene blue dye was then infused into the CCs and ICs to determine whether dye migrated onto the skin surface. The skin and subcutaneous tissue surrounding the 72 catheters were excised and fixed in 10% formalin for 3 days. The tissue was grossed and processed using a long dehydration protocol for fatty tissue.[21] Specimens were sectioned perpendicular or parallel to the skin surface depending on the location and angle of the cannula in the excised tissue specimen. Four-micrometer-thick tissue sections were stained with hematoxylin and eosin (nuclei are stained blue/purple, extracellular matrix [ECM] and cytoplasm are stained in pink), Masson's trichrome (collagen/connective tissue is stained blue, muscle fibers and erythrocytes are stained bright red, and cytoplasm is stained pink), and a reticulin stain (type III collagen is stained silver).
A surgical pathologist analyzed the stained tissue for no, mild, moderate, or severe (grades 0, 1, 2, or 3, respectively) hemorrhage, reticular fiber disruption, fibrin deposition, fat necrosis, and collagen deposition compared with unaffected tissue. This grading system was newly established by the lead pathologist of this study who predefined these criteria before analyzing all samples. The pathologist remained blinded throughout the study. The size of the debris field was measured (mm) using the Aperio ScanScope image capture device and ImageScope software (Leica Biosystems). Topography of tissue planes was considered regular if subcutaneous tissue was pushed down evenly in the direction of the cannula tip and irregular or intermediate otherwise. Irregular or regular reservoir geometry described the shape of the debris field surrounding the catheter tip.
Fisher's exact test was used to evaluate the differences in histology profiles of CCs and ICs. A chi-squared test was applied to analyze differences in methylene blue dye leakage.

[1] = swine s.c. tissue, day 5, insulin-infused CSII catheters (CC + IC), count (percent in brackets)
[2] = swine s.c. tissue, day 5, insulin-infused CSII catheters (CC + IC), count (percent in brackets), P < 0.05 between infusion types
[3] = swine, day 5, insulin-infused CC, count (percent of 11 catheters)
[4] = swine, day 5, insulin-infused IC, count (percent of 12 catheters)

insulin lispro
Collagen deposition at tip: catheters graded Mild [1]: 16 (66.7) | Collagen deposition at tip: catheters graded Moderate [1]: 5 (20.8) | Collagen deposition at tip: catheters graded None [1]: 2 (8.3) | Collagen deposition at tip: catheters graded Severe [1]: 1 (4.2) | Fat Necrosis: catheters graded Mild [1]: 5 (20.8) | Fat Necrosis: catheters graded Moderate [1]: 12 (50.0) | Fat Necrosis: catheters graded None [1]: 1 (4.2) | Fat Necrosis: catheters graded Severe [1]: 6 (25.0) | Hemorrhage at tip base: catheters graded Mild [1]: 13 (54.2) | Hemorrhage at tip base: catheters graded Moderate [1]: 10 (41.7) | Hemorrhage at tip base: catheters graded None [1]: 1 (4.2) | Hemorrhage at tip base: catheters graded Severe [1]: 0 | Reticular Fiber Disruption: catheters graded Mild [1]: 9 (37.5) | Reticular Fiber Disruption: catheters graded Moderate [1]: 6 (25.0) | Reticular Fiber Disruption: catheters graded None [1]: 1 (4.2) | Reticular Fiber Disruption: catheters graded Severe [1]: 8 (33.3) | Fibrin Deposition in Reservoir: catheters graded Mild [2]: 2 (8.3) | Fibrin Deposition in Reservoir: catheters graded None [2]: 1 (4.2) | Fibrin deposition in reservoir: catheters graded Moderate [2]: 11 (45.8) | Fibrin deposition in reservoir: catheters graded Severe [2]: 10 (41.7) | Tissue histopathology compared with catheters infused with saline or not infused (swine s.c. tissue): increased fibrin | Tissue histopathology compared with catheters infused with saline or not infused (swine s.c. tissue, listed as lispro insulin): greater amount of fibrin in the reservoir | Collagen Deposition at Tip: catheters graded Mild [3]: 9 (82%) | Collagen Deposition at Tip: catheters graded Moderate [3]: 2 (18%) | Collagen Deposition at Tip: catheters graded None [3]: 0 | Collagen Deposition at Tip: catheters graded Severe [3]: 0 | Fat Necrosis: catheters graded Mild [3]: 4 (36%) | Fat Necrosis: catheters graded Moderate [3]: 7 (64%) | Fat Necrosis: catheters graded None [3]: 0 | Fat Necrosis: catheters graded Severe [3]: 0 | Fibrin Deposition in Reservoir: catheters graded Mild [3]: 0 | Fibrin Deposition in Reservoir: catheters graded None [3]: 0 | Fibrin deposition in reservoir: catheters graded Moderate [3]: 3 (27%) | Hemorrhage at Tip Base: catheters graded Mild [3]: 7 (64%) | Hemorrhage at Tip Base: catheters graded Moderate [3]: 4 (36%) | Hemorrhage at Tip Base: catheters graded None [3]: 0 | Hemorrhage at Tip Base: catheters graded Severe [3]: 0 | Reticular Fiber Disruption: catheters graded Mild [3]: 9 (82%) | Reticular Fiber Disruption: catheters graded Moderate [3]: 2 (18%) | Reticular Fiber Disruption: catheters graded None [3]: 0 | Reticular Fiber Disruption: catheters graded Severe [3]: 0 | Collagen Deposition at Tip: catheters graded Mild [4]: 7 (58%) | Collagen Deposition at Tip: catheters graded Moderate [4]: 3 (25%) | Collagen Deposition at Tip: catheters graded None [4]: 1 (8%) | Collagen Deposition at Tip: catheters graded Severe [4]: 1 (8%) | Fat Necrosis: catheters graded Mild [4]: 1 (8%) | Fat Necrosis: catheters graded Moderate [4]: 5 (42%) | Fat Necrosis: catheters graded None [4]: 0 | Fat Necrosis: catheters graded Severe [4]: 6 (50%) | Fibrin Deposition in Reservoir: catheters graded Mild [4]: 2 (17%) | Fibrin Deposition in Reservoir: catheters graded None [4]: 0 | Fibrin deposition in reservoir: catheters graded Severe [4]: 2 (17%) | Hemorrhage at Tip Base: catheters graded Mild [4]: 6 (50%) | Hemorrhage at Tip Base: catheters graded Moderate [4]: 6 (50%) | Hemorrhage at Tip Base: catheters graded None [4]: 0 | Hemorrhage at Tip Base: catheters graded Severe [4]: 0 | Reticular Fiber Disruption: catheters graded Mild [4]: 0 | Reticular Fiber Disruption: catheters graded Moderate [4]: 4 (33%) | Reticular Fiber Disruption: catheters graded None [4]: 0 | Reticular Fiber Disruption: catheters graded Severe [4]: 8 (67%)
